The test system of one test is PC3 model. The experiment in a line: Tumor volume in mice, PC3 model. In kind it is in vivo. Here is the method:
Tumor volume was measured in mice being treated with Abraxane alone (15 mg/kg administered daily for five days), Abraxane and Sutent (the Sutent administered at 30 mg/kg daily for 8 weeks), Abraxane and exogenous SPARC (the SPARC at […] administered twice a week for eight weeks), and finally, Abraxane, Sutent and SPARC together.
FIG. 1 depicts a graph plotting tumor volume (mm^3) against time (days) for these test conditions.

Test [1] concerns HUVEC. As to the kind of experiment: HUVEC (3-D) tube formation assay. In kind it is cell-based. How it is done: (§1) Recombinant human SPARC and genetically engineered variants were expressed and purified using HEK 293 cells maintained in hollow fiber bio-reactors. The angiogenic activity of rhSPARC and its variants was evaluated using a HUVEC tube formation assay and a HUVEC sprout formation bead assay.
(§2) In the HUVEC tube formation assay, rhSPARC was pro-angiogenic at 10 μg/mL and anti-angiogenic at 100 μg/mL. […] Additional rhSPARC variants with deletions and single/double amino acid substitutions tested in these assays included: Q3 deletion (BIO2), an inversion of the putative angiogenic domain (BIO5), a double K>Q substitution in the proposed angiogenic domain (BIO11), the genetic ablation of the putative catephsin K recognition sites (BIO8), and a proteolytic degradation product of rhSPARC. End terminal amino acid analysis indicated the angiogenic activity is localized to SEQ ID NO: 1.
FIG. 4 depicts the results of a HUVEC 3-D tube formation assay conducted with wild type SPARC and SPARC-D. The angiogenic behavior of wild type SPARC, as described in the previous example, can be seen in the graph; the angiogenic behavior increases as the concentration approaches 10 ug/ml and drops off as it approaches 100 ug/ml.

Test [2] relates to HUVEC. As to the kind of experiment: HUVEC sprout formation bead assay. In kind it is cell-based. The conditions noted are these: addition of rhSPARC. How it is done: as §1, §2

Take `CCN(CC)CCNC(=O)c1c(C)[nH]c(/C=C2\C(=O)Nc3ccc(F)cc32)c1C` [Sutent®, reference compound]: the “efficacy of the SPARC/Abraxane combination (tumor volume)” value with PC3 model (Sutent 30 mg/kg daily for 8 weeks added to SPARC and Abraxane) was “markedly improved”. Moreover, the “decrease in tumor volume” value in the test with PC3 model (Sutent 30 mg/kg daily for 8 weeks with Abraxane, versus Abraxane alone) is given as “far greater decrease in tumor volume”.

B1: SPARC: Secreted Protein, Acidic, Rich in Cysteines; recombinant human SPARC expressed and purified using HEK 293 cells (protein, listed as Homo sapiens)
chain: APQQEALPDETEVVEETVAEVTEVSVGANPVQVEVGEFDDGAEETEEEVVAENPCQNHHCKHGKVCELDENNTPMCVCQDPTSCPAPIGEFEKVCSNDNKTFDSSCHFFATKCTLEGTKKGHKLHLDYIGPCKYIPPCLDSELTEFPLRMRDWLKNVLVTLYERDEDNNLLTEKQKLRVKKIHENEKRLEAGDHPVELLARDFEKNYNMYIFPVHWQFGQLDQHPIDGYLSH
B1: the tumor volume entry with PC3 model (exogenous SPARC 0.2 mg/ms twice a week for eight weeks with Abraxane, versus Abraxane alone) is reported as “tumor volume is slightly greater”. Also, the “effect on synergy of Abraxane and Sutent (tumor volume)” value with PC3 model (exogenous SPARC along with Abraxane and Sutent) is “negates some of the synergistic affect”. Besides, the angiogenic activity entry with HUVEC [1] (10 μg/mL, listed as rhSPARC) is recorded as “pro-angiogenic”; with HUVEC [1] (10 μg/mL, listed as wild type SPARC), “increases”; in the test with HUVEC [1] (100 μg/mL, listed as rhSPARC), “anti-angiogenic”; with HUVEC [1] (100 μg/mL, listed as wild type SPARC), “drops off”. In the test with HUVEC [2], the “blood vessel maturity in sprout formation” value is given as “more mature blood vessels well supported by pericytes”.

The values above are taken from patent US20140094416A1, “SPARC ANGIOGENIC DOMAIN AND METHODS OF USE” (Abraxis BioScience, LLC, priority 2009, published 2014).
